Measured values: US20210069341A1

Target: FcRn-biotin (UniProt P55899)
Experiment: ELISA

EC50: 315 nM
Substance: LC-V205C (from UniProt P01834 1-107)
